The target in data set [1] is T1, mStau2 dsRBD1-2 (Mus musculus, UniProt Q8CJ67 8-181).
T1 sequence: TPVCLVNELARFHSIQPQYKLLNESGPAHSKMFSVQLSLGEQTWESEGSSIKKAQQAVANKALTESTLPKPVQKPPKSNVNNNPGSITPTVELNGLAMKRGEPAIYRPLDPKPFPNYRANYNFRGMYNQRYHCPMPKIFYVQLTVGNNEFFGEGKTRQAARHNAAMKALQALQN
Briefly: EMSA; Kd micromolar; SPR: HBS-EP (10 mM HEPES pH 7.4, 150 mM NaCl, 3 mM EDTA, 0.005% P20); EMSA: 5 nM RNA, protein buffer (40 mM Bis-Tris pH 7, 150 mM NaCl, 2 mM DTT presumed), 4% glycerol, 30 ug/mL yeast tRNA, RT; NMR: 150 mM NaCl, 20 mM Na phosphate pH 7.0, 5 mM DTT, 298 K. Conditions: protein: recombinant; tags: HisSUMO removed; label: 5' 32P; hairpin, 3' ss extension.

Data set [2] deals with T2, mStau2 dsRBD3-4 (Mus musculus, UniProt Q8CJ67 207-375).
T2 sequence: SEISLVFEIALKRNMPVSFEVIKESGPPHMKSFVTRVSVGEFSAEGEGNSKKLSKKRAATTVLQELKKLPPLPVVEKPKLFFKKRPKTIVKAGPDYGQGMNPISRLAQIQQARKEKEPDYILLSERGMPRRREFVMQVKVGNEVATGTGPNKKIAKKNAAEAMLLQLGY
Described as above. The settings on record: protein: recombinant; tags: HisSUMO removed; label: 5' 32P; hairpin, 3' ss extension.

The target of data set [3] is T1, mStau2 dsRBD1-2. Briefly: EMSA; almost abolished; no complex observed; SPR: HBS-EP (10 mM HEPES pH 7.4, 150 mM NaCl, 3 mM EDTA, 0.005% P20); EMSA: 5 nM RNA, protein buffer (40 mM Bis-Tris pH 7, 150 mM NaCl, 2 mM DTT presumed), 4% glycerol, 30 ug/mL yeast tRNA, RT; NMR: 150 mM NaCl, 20 mM Na phosphate pH 7.0, 5 mM DTT, 298 K. Conditions: protein: recombinant; tags: HisSUMO removed; label: 5' 32P; hairpin, 3' ss extension. In general terms: A gel shift assay detects complexes by their altered migration in electrophoresis.

Data set [4] concerns the target T2, mStau2 dsRBD3-4. Described as above. Conditions: protein: recombinant; tags: HisSUMO removed; label: 5' 32P; hairpin, 3' ss extension.
Data set [5] deals with T1, mStau2 dsRBD1-2. Briefly: EMSA; comparable with dsRBD3-4; SPR: HBS-EP (10 mM HEPES pH 7.4, 150 mM NaCl, 3 mM EDTA, 0.005% P20); EMSA: 5 nM RNA, protein buffer (40 mM Bis-Tris pH 7, 150 mM NaCl, 2 mM DTT presumed), 4% glycerol, 30 ug/mL yeast tRNA, RT; NMR: 150 mM NaCl, 20 mM Na phosphate pH 7.0, 5 mM DTT, 298 K. The settings on record: protein: recombinant; tags: HisSUMO removed; label: 5' 32P; hairpin.

Another data set deals with T3, mStau2 dsRBD3 (Mus musculus, UniProt Q8CJ67 207-274).
T3 sequence: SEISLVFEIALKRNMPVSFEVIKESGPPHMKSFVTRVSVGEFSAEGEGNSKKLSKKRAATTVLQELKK
The data set can be described thus: EMSA; up to 5 uM; SPR: HBS-EP (10 mM HEPES pH 7.4, 150 mM NaCl, 3 mM EDTA, 0.005% P20); EMSA: 5 nM RNA, protein buffer (40 mM Bis-Tris pH 7, 150 mM NaCl, 2 mM DTT presumed), 4% glycerol, 30 ug/mL yeast tRNA, RT; NMR: 150 mM NaCl, 20 mM Na phosphate pH 7.0, 5 mM DTT, 298 K. The settings on record: protein: recombinant; label: 5' 32P; hairpin.

The next data set deals with T4, mStau2 dsRBD4 (Mus musculus, UniProt Q8CJ67 307-375).
T4 sequence: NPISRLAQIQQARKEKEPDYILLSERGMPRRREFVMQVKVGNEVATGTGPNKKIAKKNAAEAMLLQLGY
The data set can be described thus: EMSA; binds at micromolar concentrations; SPR: HBS-EP (10 mM HEPES pH 7.4, 150 mM NaCl, 3 mM EDTA, 0.005% P20); EMSA: 5 nM RNA, protein buffer (40 mM Bis-Tris pH 7, 150 mM NaCl, 2 mM DTT presumed), 4% glycerol, 30 ug/mL yeast tRNA, RT; NMR: 150 mM NaCl, 20 mM Na phosphate pH 7.0, 5 mM DTT, 298 K. The settings on record: protein: recombinant; label: 5' 32P; hairpin.

A further data set deals with T5, mStau2 full-length (Mus musculus, UniProt Q8CJ67 1-570).
T5 sequence: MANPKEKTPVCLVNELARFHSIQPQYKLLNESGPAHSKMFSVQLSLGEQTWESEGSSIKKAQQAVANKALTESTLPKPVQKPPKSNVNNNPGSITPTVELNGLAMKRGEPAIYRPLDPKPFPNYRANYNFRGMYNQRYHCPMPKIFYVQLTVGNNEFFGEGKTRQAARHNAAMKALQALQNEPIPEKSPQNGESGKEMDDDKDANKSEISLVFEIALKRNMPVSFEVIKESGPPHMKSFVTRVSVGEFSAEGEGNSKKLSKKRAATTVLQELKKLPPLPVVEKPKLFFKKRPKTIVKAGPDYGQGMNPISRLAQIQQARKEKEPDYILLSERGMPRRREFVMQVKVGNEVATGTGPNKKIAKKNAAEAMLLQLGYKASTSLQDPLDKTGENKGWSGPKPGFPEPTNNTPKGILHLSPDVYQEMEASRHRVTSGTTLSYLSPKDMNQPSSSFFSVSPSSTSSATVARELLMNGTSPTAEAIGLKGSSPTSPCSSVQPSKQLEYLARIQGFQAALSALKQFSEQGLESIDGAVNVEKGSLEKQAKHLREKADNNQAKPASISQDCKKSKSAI
The data set can be described thus: EMSA; Kd low micromolar; SPR: HBS-EP (10 mM HEPES pH 7.4, 150 mM NaCl, 3 mM EDTA, 0.005% P20); EMSA: 5 nM RNA, protein buffer (40 mM Bis-Tris pH 7, 150 mM NaCl, 2 mM DTT presumed), 4% glycerol, 30 ug/mL yeast tRNA, RT; NMR: 150 mM NaCl, 20 mM Na phosphate pH 7.0, 5 mM DTT, 298 K. Conditions: protein: recombinant; tags: HisSUMO; label: 5' 32P; hairpin.

In data set [6] the target is T2, mStau2 dsRBD3-4. Briefly: EMSA; SPR: HBS-EP (10 mM HEPES pH 7.4, 150 mM NaCl, 3 mM EDTA, 0.005% P20); EMSA: 5 nM RNA, protein buffer (40 mM Bis-Tris pH 7, 150 mM NaCl, 2 mM DTT presumed), 4% glycerol, 30 ug/mL yeast tRNA, RT; NMR: 150 mM NaCl, 20 mM Na phosphate pH 7.0, 5 mM DTT, 298 K. Conditions: protein: recombinant; tags: HisSUMO removed; label: 5' 32P; hairpin.

GGACAUGCACAAUUUGUGUGUAUGUAUAUA (structured_RNA) [10 bp SRS2 stem-loop (9bpSRS2+5)]: the binding result in the data set with mStau2 dsRBD1-2 [1] and in the data set with mStau2 dsRBD3-4 [2] was “binds” each time.

With GGACAUGCAUUUGGUAUGUAUAUA (structured_RNA) [7 bp SRS2 stem-loop (6bpSRS2+5)], the binding result with mStau2 dsRBD1-2 [3] and in the data set with mStau2 dsRBD3-4 [4] was “no binding” in each case.

For the molecule GGACAUGCAAUUUGUGUAUGUAUAUA (structured_RNA) [8 bp SRS2 stem-loop (7bpSRS2+5)], the binding result with mStau2 dsRBD1-2 [1] and with mStau2 dsRBD3-4 [2] was “binds” throughout.

Regarding GGGACAUGCACAUGCAAUUUGUGUAUGUGUAUGU (structured_RNA) [Rgs4 SRS2 (EMSA transcript)], the binding result with mStau2 dsRBD1-2 [5] was “binds”; with mStau2 dsRBD3, “no binding”; with mStau2 dsRBD4 it was “binds”; with mStau2 full-length, “binds”; in the data set with mStau2 dsRBD3-4 [6], “binds”.

As for GGGUUCCGUCAAGCCACUGGGUCUUGAUGGAGC (structured_RNA) [Rgs4 SRS1], the binding result in the data set with mStau2 full-length is listed as “binds”.

In the case of GGACAUGCACAUGAUUUGUAUGUGUAUGUAUAUA (structured_RNA) [12 bp SRS2 stem-loop (11bpSRS2+5)], the binding result with mStau2 dsRBD1-2 [1] and in the data set with mStau2 dsRBD3-4 [2] was “binds” each time.
